± gives the standard error. For some of these results: Fewer inactive variants are shown than the library holds.
B1: glmS ribozyme (parent)
chain: AUAAAAGCGCCAGAACUACAGAAAUGUAGUUGACGAGGAGGAGGUUUAUCGAAUUUUCGGCGGAUGCCUCCAAA

Experiments:
Details in all cases: with glucosamine-6-phosphate
[1] = variants of: B1; test: kcat; higher = faster cleavage; RNA array
Outline: (§1)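 Barcoded ribozyme variants on sequenced MiSeq chips were transcribed in situ by E. coli RNA polymerase and followed at 37 °C through a hybridised Cy3 probe. Glucosamine-6-phosphate at 40 μM to 10 mM in HEPES/KCl/Mg(OAc)2 buffer was flowed in, and tiles were imaged over ~14 h. Signals were normalised to baseline and to non-cleaving reference variants, and per-tile medians were fit to one- or two-exponential decays to give kobs. Weighted Michaelis–Menten fits across concentrations gave kcat and KM.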

[2] = variants of: B1; test: KM; higher = weaker cofactor use; RNA array
Outline: as §1

[3] = variants of: B1; test: self-cleavage kobs at 40 uM GlcN6P; higher = faster cleavage; RNA array
Outline: as §1

[4] = variants of: B1; test: self-cleavage kobs at 160 uM GlcN6P; higher = faster cleavage; RNA array
Outline: as §1

[5] = variants of: B1; test: self-cleavage kobs at 640 uM GlcN6P; higher = faster cleavage; RNA array
Outline: as §1

[6] = variants of: B1; test: self-cleavage kobs at 2500 uM GlcN6P; higher = faster cleavage; RNA array
Outline: as §1

[7] = variants of: B1; test: self-cleavage kobs at 10000 uM GlcN6P; higher = faster cleavage; RNA array
Outline: as §1

A15C U54A was tested, and the kcat [1] was 0.00654 ± 0.0017 s⁻¹, the KM [2] was 1930 ± 730 µM and the “self-cleavage kobs at 40 uM GlcN6P” value [3] was 0.000164 ± 2.4e-05 s⁻¹. The “self-cleavage kobs at 160 uM GlcN6P” value [4] was 0.000559 ± 0.00011 s⁻¹, the “self-cleavage kobs at 640 uM GlcN6P” value [5] was 0.0012 ± 0.00025 s⁻¹ and the “self-cleavage kobs at 2500 uM GlcN6P” value [6] was 0.00329 ± 0.00066 s⁻¹. The “self-cleavage kobs at 10000 uM GlcN6P” value [7] was 0.00638 ± 0.00097 s⁻¹.

A12G U31C was tested, and the kcat [1] was 0.000113 ± 7.3e-06 s⁻¹, the KM [2] was 4090 ± 630 µM and the “self-cleavage kobs at 2500 uM GlcN6P” value [6] was 4.42e-05 ± 9.5e-06 s⁻¹. The “self-cleavage kobs at 10000 uM GlcN6P” value [7] was 7.95e-05 ± 1.1e-05 s⁻¹.

With G29C A48C the kcat [1] was 1.23e-05 ± 3.5e-06 s⁻¹, the “self-cleavage kobs at 40 uM GlcN6P” value [3] was less than 1e-05 s⁻¹ and the “self-cleavage kobs at 160 uM GlcN6P” value [4] was less than 1e-05 s⁻¹.

With G13U A42G the kcat [1] was 0.00137 ± 0.00022 s⁻¹, the KM [2] was 1680 ± 460 µM and the “self-cleavage kobs at 40 uM GlcN6P” value [3] was 2.35e-05 ± 1.1e-05 s⁻¹. For the same variant, the “self-cleavage kobs at 160 uM GlcN6P” value [4] was 0.000152 ± 3.8e-05 s⁻¹, the “self-cleavage kobs at 2500 uM GlcN6P” value [6] was 0.00082 ± 0.00017 s⁻¹ and the “self-cleavage kobs at 10000 uM GlcN6P” value [7] was 0.00117 ± 0.00027 s⁻¹.

Variant A6C G29A U57G U69G has a kcat [1] of 3.11e-05 ± 1.2e-05 s⁻¹.

In the case of A14U G43U, the kcat [1] is reported as less than 1e-05 s⁻¹ and the “self-cleavage kobs at 40 uM GlcN6P” value [3] is reported as less than 1e-05 s⁻¹.

With C10U U47G the kcat [1] was less than 1e-05 s⁻¹ and the “self-cleavage kobs at 160 uM GlcN6P” value [4] was less than 1e-05 s⁻¹.

For G66A C67G, the kcat [1] was 0.00418 ± 0.0021 s⁻¹, the “self-cleavage kobs at 40 uM GlcN6P” value [3] was 0.000102 ± 1.4e-05 s⁻¹ and the “self-cleavage kobs at 160 uM GlcN6P” value [4] was 0.000414 ± 5.4e-05 s⁻¹. The “self-cleavage kobs at 640 uM GlcN6P” value [5] was 0.000703 ± 0.0001 s⁻¹, the “self-cleavage kobs at 2500 uM GlcN6P” value [6] was 0.00281 ± 0.00066 s⁻¹ and the “self-cleavage kobs at 10000 uM GlcN6P” value [7] was 0.00412 ± 0.00067 s⁻¹.

A36C U65G C70U showed a kcat [1] of 1.94e-05 ± 5.3e-06 s⁻¹.

For U47G A52U, the kcat [1] was 0.000286 ± 1.4e-05 s⁻¹, the KM [2] was 1950 ± 180 µM and the “self-cleavage kobs at 640 uM GlcN6P” value [5] was 6.99e-05 ± 7.7e-06 s⁻¹. The “self-cleavage kobs at 2500 uM GlcN6P” value [6] was 0.000169 ± 2e-05 s⁻¹ and the “self-cleavage kobs at 10000 uM GlcN6P” value [7] was 0.000234 ± 2.6e-05 s⁻¹.

In the case of U31G A48C, the kcat [1] is reported as 0.000112 ± 1.1e-05 s⁻¹, the KM [2] is reported as 2550 ± 670 µM and the “self-cleavage kobs at 2500 uM GlcN6P” value [6] is reported as 5.79e-05 ± 1.5e-05 s⁻¹. For the same variant, the “self-cleavage kobs at 10000 uM GlcN6P” value [7] was 8.83e-05 ± 1.7e-05 s⁻¹.

A14U U31G A39C was tested, and the kcat [1] was 0.000999 ± 0.00027 s⁻¹, the KM [2] was 4360 ± 1700 µM and the “self-cleavage kobs at 160 uM GlcN6P” value [4] was 5.41e-05 ± 2e-05 s⁻¹. The “self-cleavage kobs at 640 uM GlcN6P” value [5] was 0.000117 ± 2.6e-05 s⁻¹, the “self-cleavage kobs at 2500 uM GlcN6P” value [6] was 0.000373 ± 9.9e-05 s⁻¹ and the “self-cleavage kobs at 10000 uM GlcN6P” value [7] was 0.000701 ± 0.00017 s⁻¹.

A39C U69C was tested, and the kcat [1] was 0.000195 ± 3.5e-05 s⁻¹, the “self-cleavage kobs at 640 uM GlcN6P” value [5] was 6.94e-05 ± 1.8e-05 s⁻¹ and the “self-cleavage kobs at 2500 uM GlcN6P” value [6] was 0.000211 ± 3.5e-05 s⁻¹. The “self-cleavage kobs at 10000 uM GlcN6P” value [7] was 0.000166 ± 1.9e-05 s⁻¹.

G40U C71U was tested, and the kcat [1] was 0.00842 ± 0.0008 s⁻¹, the KM [2] was 1490 ± 200 µM and the “self-cleavage kobs at 40 uM GlcN6P” value [3] was 0.000232 ± 1.6e-05 s⁻¹. The “self-cleavage kobs at 160 uM GlcN6P” value [4] was 0.000742 ± 0.00011 s⁻¹, the “self-cleavage kobs at 640 uM GlcN6P” value [5] was 0.00248 ± 0.00024 s⁻¹ and the “self-cleavage kobs at 2500 uM GlcN6P” value [6] was 0.00464 ± 0.0005 s⁻¹. The “self-cleavage kobs at 10000 uM GlcN6P” value [7] was 0.00794 ± 0.00065 s⁻¹.

With G13A the kcat [1] was 0.00142 ± 0.00018 s⁻¹, the KM [2] was 4830 ± 750 µM and the “self-cleavage kobs at 40 uM GlcN6P” value [3] was 1.56e-05 ± 1.7e-06 s⁻¹. For the same variant, the “self-cleavage kobs at 160 uM GlcN6P” value [4] was 4.65e-05 ± 1.7e-06 s⁻¹, the “self-cleavage kobs at 640 uM GlcN6P” value [5] was 0.000162 ± 3.8e-06 s⁻¹ and the “self-cleavage kobs at 2500 uM GlcN6P” value [6] was 0.00057 ± 3.3e-05 s⁻¹. The “self-cleavage kobs at 10000 uM GlcN6P” value [7] was 0.000945 ± 3.6e-05 s⁻¹.

With U56A C58A the kcat [1] was 0.00106 ± 0.00052 s⁻¹, the “self-cleavage kobs at 160 uM GlcN6P” value [4] was 3.2e-05 ± 1.1e-05 s⁻¹ and the “self-cleavage kobs at 640 uM GlcN6P” value [5] was 0.000101 ± 1.3e-05 s⁻¹. The “self-cleavage kobs at 2500 uM GlcN6P” value [6] was 0.000187 ± 2.3e-05 s⁻¹ and the “self-cleavage kobs at 10000 uM GlcN6P” value [7] was 0.000605 ± 5.6e-05 s⁻¹.

From the supplement of paper PMC7125110
